Target: the molecule itself
Assay: amyloid fibre formation (thioflavin T fluorescence + electron microscopy + X-ray fibre diffraction); self-association into fibres; 50 uM protein in 1x PBS with 40 uM ThT, 37 °C, 700 rpm double orbital shaking with a PTFE bead, ~138 h; end-point samples imaged by negative-stain TEM; fibres diffracted (rings at 4.7 and 10 Å)

B1: mCherry-fused low-complexity domain of TFG, residues 237-327, G269V (domain or fragment, human, UniProt Q92734 237-327, looked up)
chain: GQIEGQMYQQYQQQAGYGAQQPQAPPQQPQQYVIQYSASYSQQTGPQQPQQFQGYGQQPTSQAPAPAFSGQPQQLPAQPPQQYQASNYPAQ
notes: TRK-fused gene protein (TFG), human, low-complexity domain, residues 237-327, with the documented pathogenic mutation G269V (Charcot-Marie-Tooth disease type 2); also called TFG (237-327) G269V; mutant construct; source: E. coli BL21(DE3) Gold, purified (nickel-nitrilotriacetic acid, size-exclusion chromatography), dialyzed into PBS
Does B1 bind?
Result: binds

B2: mCherry-fused low-complexity domain of TFG, residues 237-327, P285L (domain or fragment, human, UniProt Q92734 237-327, looked up)
chain: GQIEGQMYQQYQQQAGYGAQQPQAPPQQPQQYGIQYSASYSQQTGPQQLQQFQGYGQQPTSQAPAPAFSGQPQQLPAQPPQQYQASNYPAQ
notes: also called TFG (237-327) P285L; mutant construct; source: E. coli BL21(DE3) Gold, purified (nickel-nitrilotriacetic acid, size-exclusion chromatography), dialyzed into PBS
Does B2 bind?
Result: binds
